Experimental data published in article PMC5040351 (Arteriosclerosis, thrombosis, and vascular biology, 2016).

What was measured:
[1] = target: endogenous calnexin (CNX) (human (endogenous in HEK293T and HeLa)) (UniProt P27824); assay: co-IP
[2] = target: ABCA1-FLAG (ATP-Binding Cassette A1 cholesterol transporter, FLAG-tagged) (UniProt O95477); assay: co-IP
[3] = target: HA-tagged calnexin with deletion of the lumenal repeat segment (CNXΔ276-409) (UniProt P27824); assay: co-IP
[4] = target: myristoylated NefSF2 protein (HIV-1 SF2, UniProt P03407 1-210, myristoylated); assay: SPR

## Nef K7A (single lysine mutant of Nef_(cons)) (natural protein)
[1]
  percent reduction of co-precipitated Nef against WT Nef: 70%

## Nef K4,7A (double lysine mutant of Nef_(cons)) (natural protein)
[2]
  percent reduction of co-precipitated Nef against wild-type Nef: 30%

## HIV-1 Nef expressed from the Nef_(cons) vector (wild type) (natural protein)
[3]
  percent reduction of co-precipitated Nef against WT CNX: 40%

## Nef K4A (single lysine mutant of Nef_(cons)) (natural protein)
[1]
  percent reduction of co-precipitated Nef against WT Nef: 80%

B1: cytoplasmic tail of calnexin (CNX-CT), recombinant (domain or fragment, UniProt P27824 503-592, looked up)
chain: CSGKKQTSGMEYKKTDAPQPDVKEEEEEKEEEKDKGDEEEEGEEKLEEKQKSDAEEDGGTVSQEEEDRKPKAEEDEILNRSPRNRKPRRE
[4]
  Kd: 9.4 nM
  koff: 0.00857 s⁻¹
  kon: 908000 M⁻¹ s⁻¹
